Reference: PMC11612968, “Endo-bind-n-seq: identifying RNA motifs of RNA binding proteins isolated from endogenous sources”

Target: T1, GST-ZC3H7B(415-956) (UniProt Q9UGR2 415-956)
T1 sequence: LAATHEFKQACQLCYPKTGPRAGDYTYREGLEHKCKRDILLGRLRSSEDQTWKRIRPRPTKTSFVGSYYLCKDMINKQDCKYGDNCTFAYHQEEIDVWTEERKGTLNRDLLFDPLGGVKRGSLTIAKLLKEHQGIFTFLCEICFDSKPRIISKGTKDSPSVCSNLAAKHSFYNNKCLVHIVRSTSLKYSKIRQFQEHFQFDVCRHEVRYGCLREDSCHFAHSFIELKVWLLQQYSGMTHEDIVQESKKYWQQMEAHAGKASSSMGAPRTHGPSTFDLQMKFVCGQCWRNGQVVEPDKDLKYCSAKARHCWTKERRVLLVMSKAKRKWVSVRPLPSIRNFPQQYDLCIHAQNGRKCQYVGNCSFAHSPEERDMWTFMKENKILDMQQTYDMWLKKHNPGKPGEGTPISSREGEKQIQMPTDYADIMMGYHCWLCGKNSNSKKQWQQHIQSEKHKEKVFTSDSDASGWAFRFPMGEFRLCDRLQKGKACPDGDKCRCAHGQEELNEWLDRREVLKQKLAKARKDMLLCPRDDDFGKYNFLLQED
Experiment: filter binding; Filter binding: 50 mM Tris-HCl pH 8.0, 150 mM NaCl, 5% glycerol, 20 C; EMSA: 20 mM HEPES-KOH pH 7.4, 100 mM NaCl, 1 mM MgCl2, 0.1% Tween20, 40 mM EDTA, 10% glycerol, 70 C; competition: 25 mM Tris-HCl pH 7.5, 150 mM KCl, 3 mM MgCl2, 0.01% NP-40, 1 mg/ml BSA, 1 mM DTT, 5% glycerol, RT
Details: protein: recombinant; tags: N-terminal GST (pGEX-4T-1, TEV site); label: 5' 32P

AUAGUGUAGU (ssRNA) [ZC3H7B motif RNA (AUAG)]: binds.
